Reference: patent US20240301076A1 (CEPHALON, published 2024)
Values joined by “and” are separate entries in the source; they are usually repeats but may differ in a detail not shown here. Identical values can stand only once. Like-named read-outs stand apart in the source and are kept apart here.

B1: BKO-8G3_b (antibody, human IgG4 S228P, lambda, V domains shown)
VH: EVQLLESGGGLVQPGGSLRLSCAASGFTFSSYAMSWVRQAPGKGLEWVSAITGSGGSTYYADSVKGRFTISRDKSKNTLYLQMNSLRAEDTAVYYCAIRLGYWGQGSLVTVSS
VL: QSALTQPPSASGSPGQSVTISCTGTSSDVGGYNYVSWYQQHPGKVPKLVIYEVSKRPSGVPDRFSGSKSGNTASLTVSGLQAEDEADYYCSSYAGSNNFGVFGGGTKLTVLG
notes: recombinant human IgG4 S228P, lambda
B2: BKO-9C3_a (antibody, human IgG4 S228P, lambda, V domains shown)
VH: EVQVLESGGGLVQPGGSLRLSCAASGFTFRSYAMSWVRQAPGKGLEWVSAISGSGGSTYYADSVKGRFTISRDKSKNTLYLQMNSLRAEDTAVYYCAIQLGYWGQGTLVTVSS
VL: QSALTQPPSASGSPGQSVIISCTGTSSDVGGYNYVSWYQQHPGKVPKLMIYEVSKRPSGVPDRFSGSKSGNTASLTVSGLQAEDEADYYCTSYAGSNNFGVFGGGTKLTVLG
notes: as for B1
B3: BKO-4A8 (antibody, human IgG4 S228P, lambda)
heavy: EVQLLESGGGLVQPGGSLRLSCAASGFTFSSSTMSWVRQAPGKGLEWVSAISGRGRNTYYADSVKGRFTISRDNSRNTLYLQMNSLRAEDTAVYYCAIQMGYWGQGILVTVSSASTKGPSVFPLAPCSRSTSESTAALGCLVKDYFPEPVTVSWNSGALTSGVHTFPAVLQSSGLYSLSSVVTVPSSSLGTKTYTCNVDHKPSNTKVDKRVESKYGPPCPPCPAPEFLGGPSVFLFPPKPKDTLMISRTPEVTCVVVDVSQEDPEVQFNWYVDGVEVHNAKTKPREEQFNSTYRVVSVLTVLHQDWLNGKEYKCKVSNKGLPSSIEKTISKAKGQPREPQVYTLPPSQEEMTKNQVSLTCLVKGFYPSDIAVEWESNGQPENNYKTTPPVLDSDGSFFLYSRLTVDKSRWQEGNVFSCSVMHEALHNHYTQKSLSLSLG
light: QSALTQPPSASGSPGQSVTISCIGTSSDVGGYNYVSWYQQHPDKAPKLMIYEVNKRPSGVPDRFSGSKSGNTASLTVSGLQAEDEADYYCSSYAGNNNFGVFGGGTKLTVLGQPKAAPSVTLFPPSSEELQANKATLVCLISDFYPGAVTVAWKADSSPVKAGVETTTPSKQSNNKYAASSYLSLTPEQWKSHRSYSCQVTHEGSTVEKTVAPTECS
notes: recombinant human IgG4 S228P, lambda; also called BKO-4A8 IgG4; parental BKO-4A8
B4: BKO-4A8 combinatorial variant 102c (antibody, human IgG4 S228P, lambda, V domains shown)
VH: EVQLLESGGGLVQPGGSLRLSCAASGFTFSSSTQSWVRQPPGKGLEWVSAISGRGRSTYYADSVKGRFTISRDNSKNTLYLQMNSLRAEDTAVYYCAIQEGYWGQGILVTVSS
VL: QSALTQPPSASGSPGQSVTISCIGTSSDVGGYNYVSWYQQHPGKAPKLMIYEVSKRPSGVPDRFSGSKSGNTASLTVSGLQAEDEADYYCSSYAGSNNFGVFGGGTKLTVLG
notes: IgG4 S228P, lambda
B5: BKO-4A8-105c (antibody, human IgG4 S228P, lambda, V domains shown)
VH: EVQLLESGGGLVQPGGSLRLSCAASGFTFSSSTQSWVRQPPGKGLEWVSAISGSGGSTYYADSVKGRFTISRDNSKNTLYLQMNSLRAEDTAVYYCAIQAGYWGQGILVTVSS
VL: QSALTQPPSASGSPGQSVTISCIGTSSDVGGYNYVSWYQQHPGKAPKLMIYEVSKRPSGVPDRFSGSKSGNTASLTVSGLQAEDEADYYCSSYAGSNNFGVFGGGTKLTVLG
notes: IgG4 S228P, lambda
B6: BKO-4A8-104c (antibody, human IgG4 S228P, lambda, V domains shown)
VH: EVQLLESGGGLVQPGGSLRLSCAASGFTFSSSTQSWVRQPPGKGLEWVSAISGSGGSTYYADSVKGRFTISRDNSKNTLYLQMNSLRAEDTAVYYCAIQKGYWGQGILVTVSS
VL: QSALTQPPSASGSPGQSVTISCIGTSSDVGGYNYVSWYQQHPGKAPKLMIYEVSKRPSGVPDRFSGSKSGNTASLTVSGLQAEDEADYYCSSYAGSNNFGVFGGGTKLTVLG
notes: IgG4 S228P, lambda
B7: BKO-4A8-103c (antibody, human IgG4 S228P, lambda, V domains shown)
VH: EVQLLESGGGLVQPGGSLRLSCAASGFTFSSSTQSWVRQPPGKGLEWVSAISGSGGSTYYADSVKGRFTISRDNSKNTLYLQMNSLRAEDTAVYYCAIQMGYWGQGILVTVSS
VL: QSALTQPPSASGSPGQSVTISCIGTSSDVGGYNYVSWYQQHPGKAPKLMIYEVSKRPSGVPDRFSGSKSGNTASLTVSGLQAEDEADYYCSSYAGSNNFGVFGGGTKLTVLG
notes: IgG4 S228P, lambda
B8: BKO-4A8 combinatorial variant 106c (antibody, human IgG4 S228P, lambda, V domains shown)
VH: EVQLLESGGGLVQPGGSLRLSCAASGFTFSSSTQSWVRQPPGKGLEWVSAISGSGGSTYYADSVKGRFTISRDNSKNTLYLQMNSLRAEDTAVYYCAIQEGYWGQGILVTVSS
VL: QSALTQPPSASGSPGQSVTISCIGTSSDVGGYNYVSWYQQHPGKAPKLMIYEVSKRPSGVPDRFSGSKSGNTASLTVSGLQAEDEADYYCSSYAGSNNFGVFGGGTKLTVLG
notes: IgG4 S228P, lambda

How the values were obtained:
[1] = biological target: T1, human CXCR2 (human, UniProt P25025 1-360); test: flow cytometry, transfected Expi293F cells
T1 construct: also called CXC chemokine receptor 2; hCXCR2
T1 sequence: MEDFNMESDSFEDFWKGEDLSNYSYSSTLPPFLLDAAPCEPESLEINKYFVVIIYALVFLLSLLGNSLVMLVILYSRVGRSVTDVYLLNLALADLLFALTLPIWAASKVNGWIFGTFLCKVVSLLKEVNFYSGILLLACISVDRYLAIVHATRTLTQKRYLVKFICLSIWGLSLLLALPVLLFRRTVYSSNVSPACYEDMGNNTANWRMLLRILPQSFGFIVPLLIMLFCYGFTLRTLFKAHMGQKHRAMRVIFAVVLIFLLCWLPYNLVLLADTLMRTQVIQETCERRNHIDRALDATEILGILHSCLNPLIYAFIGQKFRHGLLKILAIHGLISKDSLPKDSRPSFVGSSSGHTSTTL
Description: (§1) Harvested cells were resuspended in FACS buffer (1×PBS+0.5% (w/v) bovine serum albumin (BSA)+2 mM EDTA pH 7.2). Approximately 2×10⁵ cells were added per well in a 96-well round-bottomed plate. Cells were pelleted by centrifugation at 400 g for 5 mins at 4° C. and supernatants discarded. 25 μL of each test antibody or control antibody was added to the cells and incubated for 30 minutes at 4° C. Cells were washed twice in 100 μL FACS buffer followed by centrifugation at 400 g for 5 mins at 4° C.
(§2) For detection, 50 μL of secondary antibody (Table 2) was added to relevant samples. Commercially available antibodies that bound to transfected CXCR family members were used as positive controls to ensure that the cells were expressing the receptors. Cells were washed twice in 200 μL of FACS buffer followed by centrifugation at 400 g for 5 mins at 4° C. Before sample acquisition, cells were resuspended in 100 μL of FACS buffer. Samples were acquired using the high throughput sampler on a FACSCanto™ II cytometer (Beckton-Dickinson).
(§3) These antibody variable regions were then generated by gene synthesis and subcloned into mammalian expression vectors as described in General Methods. Antibodies were produced by co-expression of heavy and light chain plasmids in Expi293F™ cells and purified by protein A column chromatography as described in General Methods. Where several heavy and/or light chains were identified from the same hybridoma cells, each heavy chain was paired with each light chain and the resulting antibodies given suffix a, b, c, etc. Purified antibodies were desalted into Sorensen's PBS pH 5.8 and tested by flow cytometry for binding to Expi293F™ cells transfected with human CXCR2 or human CXCR1 and mock transfected Expi293F™ cells.

[2] = biological target: T2, human CXCR1 (human, UniProt P25024 1-350); test: flow cytometry, transfected Expi293F cells
T2 sequence: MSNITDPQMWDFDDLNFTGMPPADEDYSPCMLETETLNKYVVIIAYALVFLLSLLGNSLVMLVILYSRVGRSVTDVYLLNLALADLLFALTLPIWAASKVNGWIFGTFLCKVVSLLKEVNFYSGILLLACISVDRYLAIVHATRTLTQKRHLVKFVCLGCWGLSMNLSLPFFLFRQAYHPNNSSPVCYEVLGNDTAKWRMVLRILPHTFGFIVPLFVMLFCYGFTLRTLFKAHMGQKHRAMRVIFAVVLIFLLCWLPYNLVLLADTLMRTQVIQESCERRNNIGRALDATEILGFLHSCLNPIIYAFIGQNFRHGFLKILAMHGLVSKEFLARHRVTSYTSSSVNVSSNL
Description: as §1, §2, §3

[3] = biological target: T3, cynomolgus monkey CXCR2 (cynomolgus monkey, UniProt Q28519 3-353 (rhesus entry)); test: flow cytometry, native CXCR2 on cynomolgus PBMC preparations
T3 construct: native on cynomolgus blood cells in the entries below; also called cynomolgus CXCR2
T3 chain: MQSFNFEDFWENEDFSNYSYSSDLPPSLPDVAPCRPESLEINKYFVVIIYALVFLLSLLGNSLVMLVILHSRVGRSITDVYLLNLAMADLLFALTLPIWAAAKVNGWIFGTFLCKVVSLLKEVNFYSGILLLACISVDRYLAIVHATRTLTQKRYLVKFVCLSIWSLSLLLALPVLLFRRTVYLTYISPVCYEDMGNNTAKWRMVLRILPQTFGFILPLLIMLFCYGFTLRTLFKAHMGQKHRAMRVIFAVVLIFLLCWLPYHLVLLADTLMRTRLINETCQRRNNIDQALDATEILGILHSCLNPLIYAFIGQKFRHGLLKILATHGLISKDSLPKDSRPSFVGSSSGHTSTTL
Description: Whole human buffy coat, PBMC enriched fractions prepared from human peripheral blood buffy coat or cynomolgus monkey whole blood was used for analysis of antibody binding activity by flow cytometry. Briefly, blood was untreated or diluted 1:1 in sterile filtered room temperature phosphate-buffered saline (PBS). 30 mL samples were layered over 15 mL Lymphoprep™ (Stem Cell Technologies, cat #07851). Peripheral blood mononuclear cells (PBMC) were enriched by room temperature centrifugation at 700 g for 30 minutes with no braking. The PBMC layer was isolated and cells washed in PBS containing 2 mM EDTA with low speed centrifugation at 200 g, to remove platelet contamination. Whole blood or PBMC enriched cell fractions were resuspended in red blood cell lysing solution (BioLegend, 420301). Viable cell counts were determined and cells resuspended at 1×10⁷ cells per mL in FACS buffer (1×PBS+0.5% (w/v) BSA+2 mM EDTA pH 7.2).
Flow cytometry binding assays using whole blood or PBMC enriched preparations: Binding assays to detect CXCR2 on blood neutrophil populations using test antibodies were performed essentially as described for assays using transiently transfected Expi293F™ cells. […] Matched isotype control antibodies were included for comparison. […] Neutrophil populations were identified by characteristic granularity and size, and positive binding of commercially available antibodies against CD10 (Biolegend, clone Hl10a, catalogue number 312204). Cells were washed and fixed (BioLegend Fixation buffer, 420801) prior to analysis. The level of fluorescence on the cell surface was measured by flow cytometry.

[4] = biological target: T1, human CXCR2; test: cell-based or functional assay
[5] = biological target: T1, human CXCR2; test: cell-based or functional assay; remark: listed apart in the source
[6] = biological target: T1, human CXCR2; test: flow cytometry, CXCR2-transfected Expi293F cells
Description: as §1, §2
Each heavy chain was co-expressed with each light chain to produce a sequence optimized antibody variant. Antibodies were purified and tested for CXCR2 binding activity as described in General Methods.

[7] = biological target: T1, human CXCR2; test: flow cytometry, CXCR2-transfected Expi293F cells; remark: listed apart in the source
Description: as §1, §2
A further six heavy chain combinational variants comprising four or more amino acid substitutions were produced as provided in Table 12. […] Each heavy chain was co-expressed with light chain c (SEQ ID NO:110) to produce an antibody variant. Antibodies were purified and tested for CXCR2 binding activity as described in General Methods.

Row | Binder | binding result [1] | binding result [2] | binding result [3] | IC50, CXCL1, Tango assay [4] | IC50, CXCL8, Tango assay [4] | CXCL1 IC50, Tango assay [5] | CXCL8 IC50, Tango assay [5] | EC50 [6] | EC50 [7] | Max binding (MFI Percent of 4A8 WT) [7] | Max binding (MFI) [7] | CXCL1 Fold Improvement over 4A8 WT [5] | CXCL8 Fold Improvement over 4A8 WT [5]
1 | B1 | binds | no binding | binds | – | – | – | – | – | – | – | – | – | –
2 | B2 | binds | no binding | binds | – | – | – | – | – | – | – | – | – | –
3 | B3 | – | no binding | binds | 0.177 nM | 0.112 nM | 94 nM | 0.66 nM | 0.4 nM and 0.5 nM and 0.6 nM and 0.9 nM | 1.58 nM and 3.82 nM | – | – | – | –
4 | B4 | – | – | – | – | – | – | – | – | 8.7 nM | 53% | 33000 MFI | – | –
5 | B5 | – | – | – | – | – | 4 nM | 1.85 nM | – | 5.73 nM | 52% | 42700 MFI | 0.24 fold | 0.36 fold
6 | B6 | – | – | – | – | – | 2.17 nM | 0.75 nM | – | 6.45 nM | 54% | 45100 MFI | 0.43 fold | 0.88 fold
7 | B7 | – | – | – | – | – | 2.4 nM | 1.25 nM | – | 5.15 nM | 72% | 44400 MFI | 2.55 fold | 0.53 fold
8 | B8 | – | – | – | – | – | – | – | – | > 100 nM | – | 11600 MFI | – | –
